Data on 4 variants can be found in IntAct's records for PubMed 19879842.

Positions count from the first letter of the chain named.

B1: Dual specificity tyrosine-phosphorylation-regulated kinase mbk-2 (Caenorhabditis elegans), Q9XTF3-2 (parent)
chain: MTLFEPSTSGNRMGYRGSSNSSSGVGSGGSGSLMTQSIGGPNKHLSASHSTLNTASTHDMMHSKIPKSPSNESLSRSHTSSSGGSQGGHNSNSGSNSGFRPEDAVQTFGAKLVPFEKNEIYNYTRVFFVGSHAKKQAGVIGGANNGGYDDENGSYQLVVHDHIAYRYEVLKVIGKGSFGQVIKAFDHKYQQYVALKLVRNEKRFHRQADEEIRILDHLRRQDSDGTHNIIHMLDYFNFRNHKCITFELLSINLYELIKRNKFQGFSLMLVRKFAYSMLLCLDLLQKNRLIHCDLKPENVLLKQQGRSGIKVIDFGSSCFDDQRIYTYIQSRFYRAPEVILGTKYGMPIDMWSLGCILAELLTGYPLLPGEDENDQLALIIELLGMPPPKSLETAKRARTFITSKGYPRYCTATSMPDGSVVLAGARSKRGKMRGPPASRSWSTALKNMGDELFVDFLKRCLDWDPETRMTPAQALKHKWLRRRLPNPPRDGLESMGGLADHEVCFIIF
partner: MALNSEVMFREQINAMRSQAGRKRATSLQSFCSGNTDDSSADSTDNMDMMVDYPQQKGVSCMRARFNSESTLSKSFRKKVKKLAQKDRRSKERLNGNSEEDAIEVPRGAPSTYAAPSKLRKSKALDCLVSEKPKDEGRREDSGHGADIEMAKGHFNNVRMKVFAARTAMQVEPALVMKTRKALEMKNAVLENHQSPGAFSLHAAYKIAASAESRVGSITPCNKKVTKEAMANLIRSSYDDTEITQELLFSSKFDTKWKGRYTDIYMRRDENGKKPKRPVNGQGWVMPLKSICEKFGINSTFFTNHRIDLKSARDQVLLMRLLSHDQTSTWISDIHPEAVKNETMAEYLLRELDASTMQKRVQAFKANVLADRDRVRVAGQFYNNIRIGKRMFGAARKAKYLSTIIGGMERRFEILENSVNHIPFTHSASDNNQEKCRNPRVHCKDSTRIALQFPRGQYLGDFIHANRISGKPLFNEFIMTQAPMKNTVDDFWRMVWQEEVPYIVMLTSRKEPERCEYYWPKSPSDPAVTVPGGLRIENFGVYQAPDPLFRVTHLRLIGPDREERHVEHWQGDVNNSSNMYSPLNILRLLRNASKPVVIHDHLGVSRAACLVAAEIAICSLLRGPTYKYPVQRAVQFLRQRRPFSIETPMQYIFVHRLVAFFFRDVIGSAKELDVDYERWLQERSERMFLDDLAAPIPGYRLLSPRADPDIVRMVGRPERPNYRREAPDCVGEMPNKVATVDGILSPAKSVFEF
B2: Dual specificity tyrosine-phosphorylation-regulated kinase mbk-2 (Caenorhabditis elegans), Q9XTF3-2 (parent)
chain: B1 chain
partner: B1 partner with R139S, N157D, T255S, M344L, K444R, T739A

One assay covers variants of B1. As to conditions: with egg4_caeel egg-4, O01767.
For the variant Y325F;Y327F, the “effect of a mutation on the interaction” value is reported as “decreasing interaction”.
Turning to K196R, the “effect of a mutation on the interaction” value is reported as “decreasing interaction”.

The variants in another assay derive from B2. As to conditions: with egg5_caeel egg-5, O61789.
Take Y325F;Y327F: the “effect of a mutation on the interaction” value is reported as “decreasing interaction”.
As to K196R, the “effect of a mutation on the interaction” value was “decreasing interaction”.
